Numbering of substitutions follows the chain as printed. Read-outs that look alike come from different tables or passages of the source.
T1: corticotropin-releasing hormone (CRH) peptide (human and mouse, not fully specified)
T1 peptide: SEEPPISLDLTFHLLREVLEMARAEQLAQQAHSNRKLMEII

T2: CRH (CT-Biotin) (human and mouse, biotin on the added C-terminal K (-K-Biotin))
T2 construct: also called Peptide 4 (CRH-Biotin); C-terminally biotinylated corticotropin-releasing hormone
T2 peptide: T1 peptide

T3: CRH (NT-Biotin) (human and mouse, not fully specified; biotin at the N-terminus)
T3 construct: also called Biotin-CRH; N-terminally biotinylated corticotropin-releasing hormone
T3 peptide: T1 peptide

T4: corticotropin-releasing hormone (CRH) peptide (human and mouse (same sequence), not fully specified)
T4 peptide: T1 peptide

T5: CRH (CT-Biotin) (human and mouse (same sequence), biotin on an added C-terminal K (CRH-K-Biotin))
T5 construct: also called Peptide 4 (CRH-Biotin)
T5 peptide: T1 peptide

T6: CRH (NT-Biotin) (human and mouse (same sequence), not fully specified; biotin at the N-terminus)
T6 peptide: T1 peptide

B1: PR301806 (antibody, human IgG1, kappa, V domains shown)
VH: QVQLQQPGAELVKPGTSVKMSCKASGYTFTSYWMHWVKQRPGQGLEWIGDIYPGSDSTNYNEKFKSKASLTVDTSSSTAYMQLSSLTSEDSAVYYCARSITTTTFWYFDVWGAGTTVTVSS
VL: DVLMTQTPLSLPVSLGDQASISCRSSQSFVYSNGNTYLQWYLQKPGQSPKLLIYKVSNRFSGVPDRFSGSGSGTDFTLKISRVEAEDLGVYYCFQGSHVPPTFGAGTKLELKR
notes: Mouse variable domains, expressed recombinantly with human IgG1 wildtype Fc; also called Series 6 mAb
B2: PR301780 (antibody, human IgG1, kappa, V domains shown)
VH: QIQLVQSGPELKKPGETVKISCKASGYTFTNFGLNWVKQAPGKGLKWMGWINTYTGEPTYTDDFKGRFAFSLETSASTAYLQINNLKKEDTATYFCARGTYRDDGAWFAYWGQGTLVTVSA
VL: B1 VL with S28I, F29I, Y31H, Q39E, Y92H, P101W, A105G, L111I
notes: Mouse variable domains, expressed recombinantly with human IgG1 wildtype Fc; also called Series 7 mAb
B3: PR302324 (antibody, human IgG1, kappa, V domains shown)
VH: EVQLQQSGPELVKPGASVKMSCKASGYTFTDYFMKWVKQSHGGSLEWIGVISPNNGDTFYNQKFKGKATLTVDKSSSTAFMQLNSLTSEDSAVYSCARGTDRALFAYWGQGTLVTVSA
VL: B1 VL with F29I, Y31H, N33D, Q39E, K44R, E84G, V99I, P101W, A105G, L111V
notes: Mouse variable domains, expressed recombinantly with human IgG1 wildtype Fc; also called Series 10 mAb
B4: PR302312 (antibody, human IgG1, kappa, V domains shown)
VH: B3 VH with V37M, G43K, S52N, K63N, F80Y, S95Y, A97T, D101A
VL: B1 VL with F29I, Y31H, N33D, Q39E, K44R, E84G, P101W, A105G, L111V
notes: as for B3
B5: PR302341 (antibody, human IgG1, kappa, V domains shown)
VH: B3 VH with G43E, S52N, T58I, T115A
VL: DVLMTQTPLSLPVSLGDQASISCRSGQSIVHSDGNTYLEWYLQRPGQSPRLLIYKVSNRFSGVPDRFSGSGSGTDFTLKISRVGAEDLGIYYCFQGSHIPWTFGGGTKLEVKR
notes: as for B3
B6: PR302055 (antibody, human IgG1, kappa, V domains shown)
VH: EMQLVESGGGLVQPGGSLKLSCAASGFTFSNYWMNWVRQASGKGLEWVAEIRLKSNNYATHYAESVKGRFTISRDDSKSTVYLQMNSLKTEDTAVYYCTVGTLVYWGQGTLVTVSS
VL: DIQLTQSPSSLSASVGDRVTITCRASQSVSTSTYNYMHWFQQKPGKAPKLLIKFASNLESGVPSRFSGSGSGTDFTLTISSLQPEDTATYYCQHSWEIPYTFGQGTKLEIKR
notes: humanized variant of PR301777
B7: PR302328 (antibody, human IgG1, kappa, V domains shown)
VH: EVKLVESGGGLVKPGGSLKLSCAASGFTFSSYAMSWVRQTPEKRLEWVASIRSGGTTYYPDSVKGRFTISRDNARNILYLQMSSLRSEDTAIYYCTRGIDWGQGTLVTVSA
VL: NIVMTQTPKFLLVSAGDRVTITCKASQSVNNDVAWYQQKPGQSPKLLIYYASNRYTGVPDRFTGSGYGTDFTFTISTVQAEDLAVYFCQQDYSSWTFGGGTKLEIKR
notes: Mouse variable domains, expressed recombinantly with human IgG1 wildtype Fc; also called Series 9 mAb
B8: PR302331 (antibody, human IgG1, kappa, V domains shown)
VH: B7 VH with T40S
VL: B7 VL with T22A
notes: as for B7
B9: PR302334 (antibody, human IgG1, kappa, V domains shown)
VH: B7 VH with S31T
VL: B7 VL with V19I, K102N
notes: as for B7
B10: PR302339 (antibody, human IgG1, kappa, V domains shown)
VH: B7 VH with M34L
VL: B7 VL
notes: as for B7
B11: PR005657 (antibody, human IgG1, kappa, V domains shown)
VH: EVQLVESGGVLVQPGGSLRLSCAASGFTFSSYWMTWVRQAPGKGLEWVANIKQDASEKYYVDSVKGRFTISRDNAKNSLFLQMNSLRAEDTAVYYCARTLIFDYWGQGTLVTVSS
VL: DIVMTQSPLSLPVTPGEPASISCRSSQSLLHSTGYNSLEWYLQKPGQSPQLLIYLGSNRASGVPDRFSGSGSGTDFTLKISRVEAEDVGIYYCMQTLQTPITFGQGTRLEIKR
notes: PTM-removal variant of PR004290
B12: PR302333 (antibody, human IgG1, kappa, V domains shown)
VH: QIQLVQSGPELKKPGETVKISCKASGYTFTNFGMNWVKQAPGKVLKWMGWINTYTGEPIYADDFKGRFAFSLETSASAAYLQINNLKNEDTATYFCSRSTMITTGGVFAYWGQGTLVTVSA
VL: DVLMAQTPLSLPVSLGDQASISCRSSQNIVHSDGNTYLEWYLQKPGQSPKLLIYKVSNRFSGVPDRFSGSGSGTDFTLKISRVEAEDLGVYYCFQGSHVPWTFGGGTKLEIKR
notes: as for B2
B13: PR302332 (antibody, human IgG1, kappa, V domains shown)
VH: B12 VH with N35H, D62A, A78T
VL: B5 VL with T5A, G26S, R44K, R50K, G84E, I90V, I99V, V111I
notes: as for B2
B14: PR302309 (antibody, human IgG1, kappa, V domains shown)
VH: B12 VH with F32Y, A61T, A78T
VL: B5 VL with T5A, G26S, S28T, R44K, R50K, G84E, I90V, I99V, V111I
notes: as for B2
B15: PR302315 (antibody, human IgG1, kappa, V domains shown)
VH: DVQLVESGGGLMQPGGSRKLSCVASGFTFSSFGMHWVRQAPEKGLEWVAYISSGSSIIYYADTVKGRFTISRDNPKNILFLQMTSLRSEDTAMYYCARDITTATFAYWGQGTLVTVSA
VL: DVVMTQTPLSLPVSLGDQASISCRSSQSLVHSNGNTYLHWYLQKPGQSPKLLIYKVSNRFSGVPDRFSGSGSGTDFTLKISRVEAEDLGVYFCSQSTHVPWTFGGGTKLEIKR
notes: Mouse variable domains, expressed recombinantly with human IgG1 wildtype Fc; also called Series 8 mAb
B16: PR302335 (antibody, human IgG1, kappa, V domains shown)
VH: B15 VH with M12V, V23A, S56T, I58F, I78T, Y107F
VL: B15 VL with M4L, A19V, S28N, V30L, S32N, K50R, S81T, V99I
notes: as for B15
B17: PR301777 (antibody, human IgG1, kappa, V domains shown)
VH: EMKLEESGGGLVQPGGSMKLSCVASGFTFSNYWMNWVRQSPEKGLEWVAEIRLKSNNYATHYAESVKGRFTISRDDSKSGVYLQMNNLGAEDTGIYYCTVGTLVYWGQGTLVTVSA
VL: DIVLTQSPASLAVSLGQRATISCRASQSVSTSTYNYMHWFQQKPGQPPKLLIKFASNLESGVPARFSGSGSGTDFTLNIHPVEEEDTATFYCQHSWEIPYTFGGGTKLEIKR
notes: Series 5; mouse variable domains, human IgG1 wildtype Fc
B18: PR301306 (antibody, human IgG1, kappa, V domains shown)
VH: B17 VH with M2V, H61L, G80S, G89R, V100R
VL: B17 VL with T33D, F40Y, F54Y, F90Y
notes: Mouse variable domains, expressed recombinantly with human IgG1 wildtype Fc; also called Series 3 mAb
B19: PR301790 (antibody, human IgG1, kappa, V domains shown)
VH: B17 VH with G80S, G89R, V100I
VL: B17 VL with T33S, F40Y
notes: Mouse variable domains, expressed recombinantly with human IgG1 wildtype Fc; also called Series 5 mAb
B20: PR301777 (antibody, human IgG1, kappa, V domains shown)
VH: B17 VH
VL: B17 VL
notes: as for B19
B21: PR301803 (antibody, human IgG1, kappa, V domains shown)
VH: B17 VH with M2V, S30N, V66L, G80S, G89R
VL: B17 VL with A12V, F40Y
notes: as for B19

How the values were obtained:
[1] = molecular target: T1, corticotropin-releasing hormone (CRH) …; experiment: cell-based or functional assay
CRH (CT-Biotin) [2] = molecular target: T2, CRH (CT-Biotin); experiment: ELISA, C-terminally biotinylated CRH on streptavidin-coated plate
Method: (§1) Streptavidin (Thermo, Cat: 21125) was diluted in PBS to a concentration of 2 μg/ml. 100 μl of diluted streptavidin was added per well to ELISA microplates, and the plates were incubated overnight at 4° C. […] 100 μL of 3,3′,5,5′-tetramethylbenzidine (TMB) substrate (Biopanda, Cat: TMB-S-003) was added, and the plates were incubated at room temperature for 15 minutes. 100 μL of ELISA stopping solution (Solarbio, Cat #: C1058) was added to terminate the reaction, and the optical density at 450 nm (OD450 nm) was determined by an ELISA plate reader (Molecular Devices, Spectra max 384 plus).

CRH (NT-Biotin) [3] = molecular target: T3, CRH (NT-Biotin); experiment: ELISA, N-terminally biotinylated CRH on streptavidin-coated plate
Method: as §1

[4] = molecular target: T4, corticotropin-releasing hormone (CRH) …; experiment: cell-based or functional assay
CRH (CT-Biotin) [5] = molecular target: T5, CRH (CT-Biotin); experiment: ELISA, biotinylated CRH on streptavidin plate
Method: as §1

[6] = molecular target: T4, corticotropin-releasing hormone (CRH) …; experiment: cell-based or functional assay
CRH (CT-Biotin) [7] = molecular target: T5, CRH (CT-Biotin); experiment: ELISA, biotinylated CRH on streptavidin plate
Method: as §1

CRH (NT-Biotin) [8] = molecular target: T6, CRH (NT-Biotin); experiment: ELISA, biotinylated CRH on streptavidin plate
Method: as §1

| hCRHR1 Reporter IC50 [1] [nM] | EC50 (CRH (CT-Biotin) [2]) [nM] | EC50 (CRH (NT-Biotin) [3]) [nM] | further results | Binder |
| --- | --- | --- | --- | --- |
| 4.53 | 0.006 | 0.013 |  | B1 |
| 61.1 | 0.03 | 0.938 |  | B2 |
| 0.498 | 0.016 | 0.019 |  | B3 |
| 1.37 | ~0.011 | 0.025 |  | B4 |
| 0.503 | 0.017 | 0.023 |  | B5 |
|  |  |  | hCRHR1 Luciferase Reporter Assay IC50 [4]: 1.35 nM; mCrhr1 Luciferase Reporter Assay IC50 [4]: 4.67 nM; EC50 (CRH (CT-Biotin) [5]): 0.013 nM | B6 |
| 0.545 | 0.03 | 0.043 |  | B7 |
| 0.39 | 0.02 | 0.016 |  | B8 |
| 0.546 | 0.021 | 0.026 |  | B9 |
| 0.852 | 0.018 | 0.018 |  | B10 |
|  |  |  | hCRHR1 Luciferase Reporter Assay IC50 [6]: 4.6 nM; mCrhr1 Luciferase Reporter Assay IC50 [6]: 11.8 nM; EC50 (CRH (CT-Biotin) [7]): 0.045 nM | B11 |
| 1.92 | 0.022 | 0.035 |  | B12 |
| 1.93 | 0.072 | 0.107 |  | B13 |
| 1.38 | 0.015 | 0.028 |  | B14 |
| 13.9 | 0.008 | 0.014 |  | B15 |
| 3.72 | 0.016 | 0.014 |  | B16 |
|  |  |  | hCRHR1 Luciferase Reporter Assay IC50 [4]: 0.674 nM; mCrhr1 Luciferase Reporter Assay IC50 [4]: 2.42 nM; EC50 (CRH (NT-Biotin) [8]): 0.043 nM; EC50 (CRH (CT-Biotin) [5]): 0.043 nM | B17 |
| 35.6 | 0.037 | 0.094 |  | B18 |
| 0.055 | 0.019 | 0.017 |  | B19 |
| 0.609 | 0.038 | 0.027 |  | B20 |
| 1.04 | 0.013 | 0.021 |  | B21 |

— US20260042834A1 (HBM ALPHA THERAPEUTICS, published 2026)
